From the supplement of paper PMC9170038

System: K4 kissing-loop RNA reporter
Assay: apparent KD of K4 kissing-loop reporter; higher = weaker reporter binding
Conditions: Eterna round: R107
Protocol: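 RNA-MaP round R107: designed RNA switches with theophylline, tryptophan, arginine or FMN aptamers are transcribed on-chip within common flanks. They are titrated with a labelled K4 kissing-loop RNA reporter in RNA-MaP buffer (100 mM Tris pH 7.5, 80 mM KCl, 4 mM MgCl2), without ligand or with the indicated ligand. Median apparent KD per design.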

[1] = input ligand: theophylline 20 uM
[2] = input ligand: tryptophan 2.4 mM
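Further: bound reporter read as fluorescence of individual clusters on recovered sequencing chips by microscopy, with normalized cluster intensities fitted with a binding model.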

For “AGGGAUGAUGGAUAAAUAAACAAAGGAGAUACCAGUCAAAUAAUAGGCCCUUGGCAGCUUCAGAUCAGUGAUGUUGAAGAUAUUG [#09 K4 Theophylline A Same State]”, the “apparent KD of K4 kissing-loop reporter” value (input ligand: FMN 200 uM) was 109 nM, the “apparent KD of K4 kissing-loop reporter” value (input ligand: arginine 13.2 mM) was 67.1 nM and the “apparent KD of K4 kissing-loop reporter” value (input ligand: none) was 139 nM. For the same sequence, the “apparent KD of K4 kissing-loop reporter” value [1] was 148 nM and the “apparent KD of K4 kissing-loop reporter” value [2] was 110 nM.

For “AGGGAUGUUAAAGGAUAUAGAAAGUGAUGUUAGAAAGUGAGUGAUGUUGAUGUAAGUGAUGUUAUGUUAGAAGGUUAACAAAACG [ab]”, the “apparent KD of K4 kissing-loop reporter” value (input ligand: FMN 200 uM) was 229 nM, the “apparent KD of K4 kissing-loop reporter” value (input ligand: arginine 13.2 mM) was 120 nM and the “apparent KD of K4 kissing-loop reporter” value (input ligand: none) was 200 nM. For the same sequence, the “apparent KD of K4 kissing-loop reporter” value [1] was 215 nM and the “apparent KD of K4 kissing-loop reporter” value [2] was 170 nM.

In the case of “AGGGUAAGGCGUUAACAUGACACCUGGGAAGGAGCGCGGUACACCGCAGGUAGGUCGCCCAGUGAUGUUGGGCGUAAGUAUGAGU [KL-XArg-A22]”, the “apparent KD of K4 kissing-loop reporter” value (input ligand: FMN 200 uM) is reported as 137 nM, the “apparent KD of K4 kissing-loop reporter” value (input ligand: arginine 13.2 mM) is reported as 179 nM and the “apparent KD of K4 kissing-loop reporter” value (input ligand: none) is reported as 185 nM. The “apparent KD of K4 kissing-loop reporter” value [1] was 180 nM and the “apparent KD of K4 kissing-loop reporter” value [2] was 137 nM.

“AGGUCACCACUACAGUGAUGUUGUAGGGAGCAGGAUAUGCAGAAAUGCAGAAGGGCUCGCUCCCGGUGACCGAAUGAAACAUUCA [Omei KL FMN A SS A v6]” was tested, and the “apparent KD of K4 kissing-loop reporter” value (input ligand: FMN 200 uM) was 432 nM, the “apparent KD of K4 kissing-loop reporter” value (input ligand: arginine 13.2 mM) was 258 nM and the “apparent KD of K4 kissing-loop reporter” value (input ligand: none) was 318 nM. For the same sequence, the “apparent KD of K4 kissing-loop reporter” value [1] was 289 nM and the “apparent KD of K4 kissing-loop reporter” value [2] was 282 nM.

In the case of “AGGUGCUACGGAAGGAGCGCACCAGUGAUGUUGGUGUGUGACCGUGACAUGGCAGUCAAGGUGCAGGUAGGUCGCCGUGGCCAUA [Rigela]”, the “apparent KD of K4 kissing-loop reporter” value (input ligand: FMN 200 uM) is reported as 138 nM, the “apparent KD of K4 kissing-loop reporter” value (input ligand: arginine 13.2 mM) is reported as 135 nM and the “apparent KD of K4 kissing-loop reporter” value (input ligand: none) is reported as 140 nM. For the same sequence, the “apparent KD of K4 kissing-loop reporter” value [1] was 156 nM and the “apparent KD of K4 kissing-loop reporter” value [2] was 136 nM.

With “AGUAAUGAGUGAUGUUCAAUUAGUAAGGAUACCAGUAAUUCAAAAUGCCCUUGGCAGCUUAACGCUACCAAUAGAUUAAUAAUGG [First try - Theophylline A]” the “apparent KD of K4 kissing-loop reporter” value (input ligand: FMN 200 uM) was 128 nM, the “apparent KD of K4 kissing-loop reporter” value (input ligand: arginine 13.2 mM) was 180 nM and the “apparent KD of K4 kissing-loop reporter” value (input ligand: none) was 119 nM. The “apparent KD of K4 kissing-loop reporter” value [1] was 182 nM and the “apparent KD of K4 kissing-loop reporter” value [2] was 95.5 nM.

With “AGUAGUUGGACGGCCGCCACUAGAACGCCUUUGCCAAAGGCAGAGGACUAGAGUGAUGUUCUAGCUAGGACCGGGUCCAACUACA [Omei KL Tryp B SS A v4]” the “apparent KD of K4 kissing-loop reporter” value (input ligand: FMN 200 uM) was 224 nM, the “apparent KD of K4 kissing-loop reporter” value (input ligand: arginine 13.2 mM) was 232 nM and the “apparent KD of K4 kissing-loop reporter” value (input ligand: none) was 308 nM. The “apparent KD of K4 kissing-loop reporter” value [1] was 127 nM and the “apparent KD of K4 kissing-loop reporter” value [2] was 1220 nM.

In the case of “AGUAGUUGGACGGCCGCCACUAGAACGGCUUUGCCAAAGGCAGAGCACUAGAGUGAUGUUCUAGCUAGGACCGGGUCCAACUACA [Omei KL Tryp B SS A v3]”, the “apparent KD of K4 kissing-loop reporter” value (input ligand: FMN 200 uM) is reported as 662 nM, the “apparent KD of K4 kissing-loop reporter” value (input ligand: arginine 13.2 mM) is reported as 204 nM and the “apparent KD of K4 kissing-loop reporter” value (input ligand: none) is reported as 191 nM. The “apparent KD of K4 kissing-loop reporter” value [1] was 403 nM and the “apparent KD of K4 kissing-loop reporter” value [2] was 773 nM.

“AGUCCGCUCCAAGGAUAUAGUCCGGCUGCGCGUCAGUGAUGUUGAAGAAGUAUCGCGUCUCUAUAGCUAGAAGGUGGCGCAAUUG [theeternabot_sameState_KL_FMN_B_20]” was tested, and the “apparent KD of K4 kissing-loop reporter” value (input ligand: FMN 200 uM) was 715 nM, the “apparent KD of K4 kissing-loop reporter” value (input ligand: arginine 13.2 mM) was 471 nM and the “apparent KD of K4 kissing-loop reporter” value (input ligand: none) was 989 nM. For the same sequence, the “apparent KD of K4 kissing-loop reporter” value [1] was 696 nM and the “apparent KD of K4 kissing-loop reporter” value [2] was 782 nM.

In the case of “AGUGAUAUAUGAGGAUAUGGGUUUGUUAAUGAGUUAUUUUUAGUGUUGUUUGGUUAGUGAUGUUAUUUAGAAGGCGUGAGUGAUG [rrwswwmjmullin]”, the “apparent KD of K4 kissing-loop reporter” value (input ligand: FMN 200 uM) is reported as 93.7 nM, the “apparent KD of K4 kissing-loop reporter” value (input ligand: arginine 13.2 mM) is reported as 89.4 nM and the “apparent KD of K4 kissing-loop reporter” value (input ligand: none) is reported as 81.9 nM. For the same sequence, the “apparent KD of K4 kissing-loop reporter” value [1] was 111 nM and the “apparent KD of K4 kissing-loop reporter” value [2] was 76.5 nM.

“AGUGAUGUUGUGUUAUGUUAGGGAAGUGAUCGAGGACCGGUACGGCCGCCACUCGAGUGAUGAGUGAGUGAUGUUUGUUUAGGGA [yytmullin]” was tested, and the “apparent KD of K4 kissing-loop reporter” value (input ligand: FMN 200 uM) was 1030 nM, the “apparent KD of K4 kissing-loop reporter” value (input ligand: arginine 13.2 mM) was 670 nM and the “apparent KD of K4 kissing-loop reporter” value (input ligand: none) was 1610 nM. The “apparent KD of K4 kissing-loop reporter” value [1] was 1070 nM and the “apparent KD of K4 kissing-loop reporter” value [2] was 590 nM.

For “AGUGCACUGUCAGGAUAUGUACAGUGAUGUUGUGUAUGUCAGCAAGUCAAAGACUUGCUCUUCUGUGCAGAAGGGACUGUGUACA [Omei KL FMN B Exc A v5]”, the “apparent KD of K4 kissing-loop reporter” value (input ligand: FMN 200 uM) was 755 nM, the “apparent KD of K4 kissing-loop reporter” value (input ligand: arginine 13.2 mM) was 464 nM and the “apparent KD of K4 kissing-loop reporter” value (input ligand: none) was 628 nM. For the same sequence, the “apparent KD of K4 kissing-loop reporter” value [1] was 506 nM and the “apparent KD of K4 kissing-loop reporter” value [2] was 554 nM.

With “AGUGGUGUAUCUUUUAAGAGUGAUGUUUUUCGAGGACCGGUACGGCCGCCACUCGAGUGAUGAGAGCGUCGUUGUGGUGAUUAGU [#15 K4 Tryptophan A Exclusion]” the “apparent KD of K4 kissing-loop reporter” value (input ligand: FMN 200 uM) was 814 nM, the “apparent KD of K4 kissing-loop reporter” value (input ligand: arginine 13.2 mM) was 582 nM and the “apparent KD of K4 kissing-loop reporter” value (input ligand: none) was 877 nM. The “apparent KD of K4 kissing-loop reporter” value [1] was 860 nM and the “apparent KD of K4 kissing-loop reporter” value [2] was 479 nM.

For “AUAGGAGUGAUGUUCCUUAGUUUCUCCGAUACCAGUAUGGAAACAUACCCUUGGCAGCGGGAAACCGCUGAUUAGGAAACUAGUC [Theophylline A K4 7]”, the “apparent KD of K4 kissing-loop reporter” value (input ligand: FMN 200 uM) was 256 nM, the “apparent KD of K4 kissing-loop reporter” value (input ligand: arginine 13.2 mM) was 271 nM and the “apparent KD of K4 kissing-loop reporter” value (input ligand: none) was 282 nM. For the same sequence, the “apparent KD of K4 kissing-loop reporter” value [1] was 242 nM and the “apparent KD of K4 kissing-loop reporter” value [2] was 223 nM.

In the case of “AUCAUUGAGUGAUGUUCAAUGGGUUUUCCCAAGGAUAUUCGGAGCUGAAGAAGGUGGCCCUCGAUAUCAGUAUCAACCUGAAAGC [theeternabot_exclusion_KL_FMN_A_11]”, the “apparent KD of K4 kissing-loop reporter” value (input ligand: FMN 200 uM) is reported as 360 nM, the “apparent KD of K4 kissing-loop reporter” value (input ligand: arginine 13.2 mM) is reported as 340 nM and the “apparent KD of K4 kissing-loop reporter” value (input ligand: none) is reported as 381 nM. For the same sequence, the “apparent KD of K4 kissing-loop reporter” value [1] was 388 nM and the “apparent KD of K4 kissing-loop reporter” value [2] was 243 nM.

With “AUCGAUAUCAGAGGAUAUGCUUAAUUGAUUUAUUAUUAUUUAUUAUGCAGUGAUGUUGCAUUUUUUGCAGAAGGCUGAUUUCGAA [JR_SSFMNB_Sub022]” the “apparent KD of K4 kissing-loop reporter” value (input ligand: FMN 200 uM) was 112 nM, the “apparent KD of K4 kissing-loop reporter” value (input ligand: arginine 13.2 mM) was 150 nM and the “apparent KD of K4 kissing-loop reporter” value (input ligand: none) was 126 nM. For the same sequence, the “apparent KD of K4 kissing-loop reporter” value [1] was 137 nM and the “apparent KD of K4 kissing-loop reporter” value [2] was 117 nM.

With “AUGCGCGUGCGAUGAAAAUCGCACGCGCAUCGAGGACCGGUACGGCCGCCACUCGCUCGCGCCGAGUGAUGUUCGGCCGGCGAAC [#2 Same State - Tryptophan A Attempt #4 (HarryS)]” the “apparent KD of K4 kissing-loop reporter” value (input ligand: FMN 200 uM) was 278 nM, the “apparent KD of K4 kissing-loop reporter” value (input ligand: arginine 13.2 mM) was 268 nM and the “apparent KD of K4 kissing-loop reporter” value (input ligand: none) was 267 nM. For the same sequence, the “apparent KD of K4 kissing-loop reporter” value [1] was 217 nM and the “apparent KD of K4 kissing-loop reporter” value [2] was 506 nM.

With “AUGGUGGAGGAGUGAUGUUCUUGGAGUAGGUAGGAUAUGAGUGAUGUUAGAAGGAUCGGAGUGAUGUUCCAGGUGGUUGUGUUGU [KL-SSFMN-A2]” the “apparent KD of K4 kissing-loop reporter” value (input ligand: FMN 200 uM) was 570 nM, the “apparent KD of K4 kissing-loop reporter” value (input ligand: arginine 13.2 mM) was 303 nM and the “apparent KD of K4 kissing-loop reporter” value (input ligand: none) was 765 nM. The “apparent KD of K4 kissing-loop reporter” value [1] was 453 nM and the “apparent KD of K4 kissing-loop reporter” value [2] was 412 nM.

For “AUGGUUGUCGUAGGAUAUGUAGGUAAUUCCUAUAGCAGUGAUGUUGCUAAUAUCUUGGAAGAAGGAACAGAAGGACGAUAACCAC [KL-SSFMN-B1 #analogue]”, the “apparent KD of K4 kissing-loop reporter” value (input ligand: FMN 200 uM) was 123 nM, the “apparent KD of K4 kissing-loop reporter” value (input ligand: arginine 13.2 mM) was 109 nM and the “apparent KD of K4 kissing-loop reporter” value (input ligand: none) was 124 nM. The “apparent KD of K4 kissing-loop reporter” value [1] was 109 nM and the “apparent KD of K4 kissing-loop reporter” value [2] was 106 nM.

“AUGUCUGAUAGCAGUGAUGUUGCUUCGGAUACCAGACGAGAUCAUGUCCCUUGGCAGCUGACACGGCACGUGCUAGGUUAGAUGA [whbob_Ex_Theo_A_th72]” was tested, and the “apparent KD of K4 kissing-loop reporter” value (input ligand: FMN 200 uM) was 121 nM, the “apparent KD of K4 kissing-loop reporter” value (input ligand: arginine 13.2 mM) was 98.3 nM and the “apparent KD of K4 kissing-loop reporter” value (input ligand: none) was 115 nM. For the same sequence, the “apparent KD of K4 kissing-loop reporter” value [1] was 116 nM and the “apparent KD of K4 kissing-loop reporter” value [2] was 113 nM.

For “AUUAAUAACUGAGGAUAUCGUUUUACUGUAGUGAUGUUACAGAAAGUUCAAAUUAUAAUUUCUAUUCGAGAAGGCAGAAUAAUUA [JR_SSFMNB_Sub026]”, the “apparent KD of K4 kissing-loop reporter” value (input ligand: FMN 200 uM) was 77.7 nM, the “apparent KD of K4 kissing-loop reporter” value (input ligand: arginine 13.2 mM) was 68.9 nM and the “apparent KD of K4 kissing-loop reporter” value (input ligand: none) was 53.5 nM. The “apparent KD of K4 kissing-loop reporter” value [1] was 62.8 nM and the “apparent KD of K4 kissing-loop reporter” value [2] was 48.1 nM.
